From patent publication US20150105326A1 (SEOUL NATIONAL UNIVERSITY SNU R AND D FOUNDATION, published 2015)

Key:
[1] = target: T1, EZH2 H689A mutant (catalytically inactive mutant, MT) (UniProt Q15910 1-746); assay: binding of EZH2 WT or MT with RORα in cell extracts (FIG. 15)
T1 construct: also called EZH2 MT; H689A mutant (MT) of EZH2

[2] = target: T2, DDB1-CUL4-associated factor 1 adaptor (DCAF1) (UniProt Q9Y4B6 1-1507); assay: co-immunoprecipitation, HEK-293 cells with 20 µM MG132 (FIG. 23 legend)
T2 construct: Endogenous or overexpressed in HEK-293 cells, in cell extracts; also called VprBP
T2 sequence (Q9Y4B6 whole entry): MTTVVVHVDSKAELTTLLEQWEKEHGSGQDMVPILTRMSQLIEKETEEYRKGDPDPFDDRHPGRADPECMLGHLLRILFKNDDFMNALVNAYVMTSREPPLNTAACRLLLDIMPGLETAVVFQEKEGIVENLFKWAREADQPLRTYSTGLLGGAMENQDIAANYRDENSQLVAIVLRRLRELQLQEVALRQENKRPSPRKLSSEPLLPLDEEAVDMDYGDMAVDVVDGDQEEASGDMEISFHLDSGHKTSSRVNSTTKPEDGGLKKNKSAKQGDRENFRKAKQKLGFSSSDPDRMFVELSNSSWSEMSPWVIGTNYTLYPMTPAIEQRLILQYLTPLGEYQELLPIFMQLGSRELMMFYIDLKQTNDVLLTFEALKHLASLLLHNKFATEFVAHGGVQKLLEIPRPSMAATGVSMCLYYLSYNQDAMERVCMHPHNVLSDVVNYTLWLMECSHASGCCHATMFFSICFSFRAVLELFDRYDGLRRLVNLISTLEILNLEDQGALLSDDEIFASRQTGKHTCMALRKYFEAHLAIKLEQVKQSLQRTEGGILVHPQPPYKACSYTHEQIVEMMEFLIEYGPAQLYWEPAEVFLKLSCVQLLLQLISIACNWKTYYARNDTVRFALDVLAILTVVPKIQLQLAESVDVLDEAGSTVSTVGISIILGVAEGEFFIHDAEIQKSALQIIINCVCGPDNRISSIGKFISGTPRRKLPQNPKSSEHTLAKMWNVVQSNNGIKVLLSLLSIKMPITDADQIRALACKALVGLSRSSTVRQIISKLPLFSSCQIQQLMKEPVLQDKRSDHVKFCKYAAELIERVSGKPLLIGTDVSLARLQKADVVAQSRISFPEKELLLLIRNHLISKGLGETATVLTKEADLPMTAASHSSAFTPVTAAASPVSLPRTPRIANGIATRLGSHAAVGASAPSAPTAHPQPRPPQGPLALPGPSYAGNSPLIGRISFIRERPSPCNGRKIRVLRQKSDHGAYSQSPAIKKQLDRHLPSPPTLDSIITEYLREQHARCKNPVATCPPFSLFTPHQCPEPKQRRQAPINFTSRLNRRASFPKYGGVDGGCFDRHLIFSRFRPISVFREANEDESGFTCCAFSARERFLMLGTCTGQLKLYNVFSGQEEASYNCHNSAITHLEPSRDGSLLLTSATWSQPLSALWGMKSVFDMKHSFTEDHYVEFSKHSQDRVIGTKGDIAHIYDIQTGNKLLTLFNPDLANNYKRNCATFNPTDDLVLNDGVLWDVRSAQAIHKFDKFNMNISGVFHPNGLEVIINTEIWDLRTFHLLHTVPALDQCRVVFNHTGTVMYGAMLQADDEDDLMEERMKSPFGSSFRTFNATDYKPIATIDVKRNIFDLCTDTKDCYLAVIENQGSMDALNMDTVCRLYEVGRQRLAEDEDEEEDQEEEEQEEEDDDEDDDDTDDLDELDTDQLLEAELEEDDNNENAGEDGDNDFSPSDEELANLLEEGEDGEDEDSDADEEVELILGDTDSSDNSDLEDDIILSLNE

[3] = target: T3, Enhancer of Zeste Homolog 2 lysine methyltransferase (EZH2) wild type (UniProt Q15910 1-746); assay: co-immunoprecipitation of endogenous proteins, HEK-293 cells with MG132 (FIG. 3)
T3 construct: Endogenous (HEK-293) or overexpressed, in cell extracts; also called EZH2 WT
T3 sequence (Q15910 whole entry): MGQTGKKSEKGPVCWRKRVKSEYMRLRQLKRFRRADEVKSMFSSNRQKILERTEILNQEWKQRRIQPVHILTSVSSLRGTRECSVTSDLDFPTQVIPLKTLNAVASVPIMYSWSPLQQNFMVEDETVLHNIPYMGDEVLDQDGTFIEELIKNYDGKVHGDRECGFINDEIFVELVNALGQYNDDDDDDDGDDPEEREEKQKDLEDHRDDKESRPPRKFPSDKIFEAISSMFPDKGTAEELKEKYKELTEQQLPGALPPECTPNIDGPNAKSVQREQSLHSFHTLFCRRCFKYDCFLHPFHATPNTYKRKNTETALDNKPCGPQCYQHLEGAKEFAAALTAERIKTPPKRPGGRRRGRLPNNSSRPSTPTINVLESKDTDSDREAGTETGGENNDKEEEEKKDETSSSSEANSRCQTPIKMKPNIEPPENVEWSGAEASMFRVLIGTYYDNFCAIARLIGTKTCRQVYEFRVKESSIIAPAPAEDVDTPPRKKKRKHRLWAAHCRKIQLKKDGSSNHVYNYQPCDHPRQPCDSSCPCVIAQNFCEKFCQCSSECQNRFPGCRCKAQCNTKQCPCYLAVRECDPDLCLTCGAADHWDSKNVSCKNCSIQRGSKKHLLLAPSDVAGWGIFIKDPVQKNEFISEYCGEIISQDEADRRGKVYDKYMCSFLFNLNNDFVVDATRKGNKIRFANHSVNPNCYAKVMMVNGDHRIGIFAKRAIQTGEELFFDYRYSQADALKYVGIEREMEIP

Measured: binding result

T1 sequence (Q15910 whole entry H689A): as the sequence (Q15910 whole entry) above, with H689A counted along it

B1: retinoic acid-related orphan nuclear receptor α (RORα) wild type (receptor, UniProt P35398-2 1-523, looked up)
chain: MESAPAAPDPAASEPGSSGADAAAGSRETPLNQESARKSEPPAPVRRQSYSSTSRGISVTKKTHTSQIEIIPCKICGDKSSGIHYGVITCEGCKGFFRRSQQSNATYSCPRQKNCLIDRTSRNRCQHCRLQKCLAVGMSRDAVKFGRMSKKQRDSLYAEVQKHRMQQQQRDHQQQPGEAEPLTPTYNISANGLTELHDDLSNYIDGHTPEGSKADSAVSSFYLDIQPSPDQSGLDINGIKPEPICDYTPASGFFPYCSFTNGETSPTVSMAELEHLAQNISKSHLETCQYLREELQQITWQTFLQEEIENYQNKQREVMWQLCAIKITEAIQYVVEFAKRIDGFMELCQNDQIVLLKAGSLEVVFIRMCRAFDSQNNTVYFDGKYASPDVFKSLGCEDFISFVFEFGKSLCSMHLTEDEIALFSAFVLMSADRSWLQEKVKIEKLQQKIQLALQHVLQKNHREDGILTKLICKVSTLRALCGRHTEKLMAFKAIYPDIVRLHFPPLYKELFTSEFEPAMQIDG
modifications: K38 mono-methylated by EZH2 in cells (the fraction methylated is not stated)
notes: Endogenous protein of HEK-293 cells in some co-immunoprecipitations, 3x-Flag-tagged (3x-Flag-CMV-RORα) in others; the tag is not written as a piece; also called RORα WT; Flag-RORα
binds: all assays above
